Here are results for one molecule from patent US20220242950A1 (CANTARGIA, published 2022).

Substitutions are numbered along the chain they refer to.

The target in experiment [1] is T1, human IL1RAP on the cell surface (human, UniProt Q9NPH3 21-570).
T1 sequence (looked up): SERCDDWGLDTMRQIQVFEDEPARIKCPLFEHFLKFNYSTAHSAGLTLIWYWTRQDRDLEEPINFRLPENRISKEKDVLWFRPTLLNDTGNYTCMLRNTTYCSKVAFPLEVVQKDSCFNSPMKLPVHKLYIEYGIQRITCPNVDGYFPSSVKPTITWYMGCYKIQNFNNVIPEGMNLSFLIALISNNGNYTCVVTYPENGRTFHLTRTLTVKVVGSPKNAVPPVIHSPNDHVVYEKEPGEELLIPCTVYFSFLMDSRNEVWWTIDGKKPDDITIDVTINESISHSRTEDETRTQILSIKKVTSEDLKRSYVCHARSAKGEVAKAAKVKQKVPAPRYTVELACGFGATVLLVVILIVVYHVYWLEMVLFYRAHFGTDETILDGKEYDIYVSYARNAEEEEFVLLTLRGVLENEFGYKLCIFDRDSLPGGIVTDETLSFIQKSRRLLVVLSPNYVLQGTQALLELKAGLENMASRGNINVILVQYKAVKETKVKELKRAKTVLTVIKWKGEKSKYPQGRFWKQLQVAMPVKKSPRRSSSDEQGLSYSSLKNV
As to the kind of experiment: cell-based or functional assay.

In experiment [2] the target is T2, recombinant hIL1RAP Domain1+2+3 (aa21-367) (human, UniProt Q9NPH3 21-367).
T2 construct: Numbering on Uniprot Q9NPH3
T2 sequence (looked up): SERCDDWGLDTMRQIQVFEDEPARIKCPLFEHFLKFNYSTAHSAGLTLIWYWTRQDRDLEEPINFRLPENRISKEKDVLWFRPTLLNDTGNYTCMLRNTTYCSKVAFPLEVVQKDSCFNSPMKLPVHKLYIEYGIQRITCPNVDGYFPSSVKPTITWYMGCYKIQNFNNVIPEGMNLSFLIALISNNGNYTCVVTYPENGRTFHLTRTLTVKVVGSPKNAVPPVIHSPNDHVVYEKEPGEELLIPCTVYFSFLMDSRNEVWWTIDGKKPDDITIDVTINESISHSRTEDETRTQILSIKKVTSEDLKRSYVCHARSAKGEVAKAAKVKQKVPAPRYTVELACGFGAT
As to the kind of experiment: BLI (BLItz), antibody on Protein A biosensor, hIL1RAP (21-367) in solution. As for the experimental part: Affinity measurements were done on BLItz™ Label-Free Protein Analysis System from ForteBio, using the Basic Kinetics module in the BLItz Pro 1.3.1.3 software from Molecular Devices. Protein A biosensors were hydrated in blocking buffer (PBS, 0.5% BSA, 0.05% Tween 20, pH 7.4) for minimum 10 min at room temperature before coating. Protein A biosensors were coated with antibodies by dipping the biosensors in 200 μl of antibody solution (10 μg/ml in blocking buffer) for 30 min at room temperature. The sensors were then incubated in 200 μl blocking buffer for at least 10 min before use. […] The baseline was made in blocking buffer with a duration time of 30 sec. Association was made for 120 sec in hIL1RAP followed by 120 sec dissociation in blocking buffer.
Affinity measurement results are shown in Table 4 for chimeric 48D2, as well as for humanized 48D2 variant VH5:VL4 (see Example 11) and for humanized and de-immunized 48D2 variant VH5.GL:VL4 (see Example 13). kₐ is the association rate constant, for characterization of the antibody binding to the target, kd is the dissociation rate constant, for characterization of the antibody dissociation from the target, and KD is the equilibrium dissociation constant between the antibody and its antigen, the ratio of kd/kₐ. […] The lower the KD value (lower concentration), the higher the affinity.

The target of experiment [3] is T2, recombinant hIL1RAP Domain1+2+3 …. As to the kind of experiment: bio-layer interferometry, human IL1RAP.
Experiment [4] deals with T1, human IL1RAP on the cell surface. As to the kind of experiment: cell-based or functional assay. The source holds these as a separate data set.
The next experiment concerns the target T3, pig IL1RAP (pig (Sus scrofa), UniProt A0A287B9B9 21-357).
T3 construct: also called ssIL1RAP
As to the kind of experiment: indirect ELISA on coated IL1RAP, goat anti-human antibody-alkaline phosphatase, absorbance at 405 nm.

Experiment [5] addresses T4, recombinant mf IL1RAP aa21-367 (cynomolgus monkey (Macaca fascicularis), UniProt A0A2K5X5J5 21-367).
T4 construct: also called cynomolgus monkey IL1RAP; cyno IL1RAP
T4 sequence: T2 sequence (looked up) with L183F, T273P, K326T
Described as above.

The target in a further experiment is T5, mouse IL1RAP (mouse (Mus musculus), UniProt Q61730 21-367, limits assumed).
T5 construct: Coated ortholog in the cross reactivity ELISA; also called mIL1RAP; murine IL1RAP
T5 sequence (looked up): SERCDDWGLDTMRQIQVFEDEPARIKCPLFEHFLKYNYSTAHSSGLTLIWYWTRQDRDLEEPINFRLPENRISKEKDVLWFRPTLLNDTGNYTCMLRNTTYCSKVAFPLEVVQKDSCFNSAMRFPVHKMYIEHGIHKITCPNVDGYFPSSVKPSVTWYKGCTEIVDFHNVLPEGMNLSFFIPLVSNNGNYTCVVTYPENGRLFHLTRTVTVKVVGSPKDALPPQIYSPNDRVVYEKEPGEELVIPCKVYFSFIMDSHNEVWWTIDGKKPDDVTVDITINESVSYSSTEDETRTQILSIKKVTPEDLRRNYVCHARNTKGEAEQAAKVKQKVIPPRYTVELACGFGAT
Described as above.

The target of experiment [6] is T2, recombinant hIL1RAP Domain1+2+3 …. Described as above.
The target in the next experiment is T6, rat IL1RAP (rat (Rattus norvegicus), UniProt Q63621 21-367, limits assumed).
T6 construct: also called rnIL1RAP
T6 sequence (looked up): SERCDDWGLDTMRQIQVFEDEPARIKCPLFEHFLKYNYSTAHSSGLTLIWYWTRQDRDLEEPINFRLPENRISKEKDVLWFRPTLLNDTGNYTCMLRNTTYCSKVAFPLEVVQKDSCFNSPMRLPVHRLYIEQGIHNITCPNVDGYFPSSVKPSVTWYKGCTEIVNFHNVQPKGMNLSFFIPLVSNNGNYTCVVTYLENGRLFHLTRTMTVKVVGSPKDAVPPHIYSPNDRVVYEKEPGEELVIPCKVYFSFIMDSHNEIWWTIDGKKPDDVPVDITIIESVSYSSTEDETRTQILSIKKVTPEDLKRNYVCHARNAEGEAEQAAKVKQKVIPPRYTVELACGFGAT
The experiment is described as above.

T3 sequence (A0A287B9B9 entry or part of it limits assumed): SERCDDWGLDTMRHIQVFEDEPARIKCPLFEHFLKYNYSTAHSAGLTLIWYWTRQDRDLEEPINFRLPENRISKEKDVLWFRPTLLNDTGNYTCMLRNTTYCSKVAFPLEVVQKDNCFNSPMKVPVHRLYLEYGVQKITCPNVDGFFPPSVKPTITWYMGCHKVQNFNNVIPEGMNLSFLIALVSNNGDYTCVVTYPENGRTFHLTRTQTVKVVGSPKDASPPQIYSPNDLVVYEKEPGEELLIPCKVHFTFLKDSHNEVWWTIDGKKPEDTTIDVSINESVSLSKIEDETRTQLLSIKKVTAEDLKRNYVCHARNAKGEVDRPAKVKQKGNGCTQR

B1: h48D2 VH5.GL:VL4 (antibody, human IgG1, kappa, L234A L235A, V domains shown)
VH: QEQLEESGGGLVKPGGTLSLTCTVSGPSLSHFDITWIRQPPGKGLEWIGTISPGVSTYYASWAKSRVTISVDTSLNTVSLKLSSVTAADTATYFCARGGVGSSWKAFDLWGPGTLVTISS
VL: ELVMTQSPSSVSASVGDRVTITCQASESISTALAWYQQKPGKAPKLLIYKASTLPSGVPSRFSGSGSGTDFTLTINSLQPEDFATYYCQQGFSSGNVHNAFGGGTKVEIKR
notes: Humanized and de-immunized; also called VL4:VH5.GL; 48D2 variant VH5.GL:VL4
Usually Kd stands for the free concentration of one partner at which half of the binding sites on the other are occupied at equilibrium, for simple one-to-one binding. One may read the koff as the first-order rate constant of dissociation. For orientation: kon means a measure of how fast the partners come together. By EC50 (read off the curve) is commonly meant the concentration needed to bring the measured effect to its halfway point. Take B1: in experiment [1], the “IC50 of IL-1α signaling (HEK-Blue assay)” value was 0.268 nM, the “IC50 of IL-1β signaling (HEK-Blue assay)” value turned out to be 0.097 nM, the “IC50 of IL-33 signaling (HEK-Blue assay)” value is 7.51 nM and the “IC50 of IL-36α signaling (HEK-Blue assay)” value was 0.147 nM. Moreover, in [1], the “IC50 of IL-36β signaling (HEK-Blue assay)” value was determined as 0.169 nM and the “IC50 of IL-36γ signaling (HEK-Blue assay)” value worked out at 0.206 nM. Besides, in experiment [2], the Kd worked out at 2.53 nM, the koff worked out at 0.000197 s⁻¹ and the kon stood at 78000 M⁻¹ s⁻¹. Further, the Kd in experiment [3] came to 2.53 nM. In [4], the “IC50 of IL-33 signaling (HEK-Blue cells stably transfected with the IL-36 receptor)” value came to 0.324 nM, the “IC50 of IL-36α signaling (HEK-Blue cells stably transfected with the IL-36 receptor)” value turned out to be 0.0557 nM, the “IC50 of IL-36β signaling (HEK-Blue cells stably transfected with the IL-36 receptor)” value turned out to be 0.161 nM and the “IC50 of IL-36γ signaling (HEK-Blue cells stably transfected with the IL-36 receptor)” value is 0.088 nM. Further, the “EC50 (read off the curve)” value with pig IL1RAP was roughly 0.05 µg/mL. Besides, in [5], the “EC50 (read off the curve)” value was roughly 0.05 µg/mL. Also, the binding result in the experiment with mouse IL1RAP is on record as “no binding (tested: 4000 ng/mL)”. In addition, the “EC50 (read off the curve)” value in [6] is roughly 0.05 µg/mL. Also, the binding result with rat IL1RAP was “no binding (tested: 4000 ng/mL)”.
